Tm data for 66 substances are collected here from the array DNA melting data of Ke et al..

What is called Tm is the temperature at which the thermal transition is half complete.

The series can be described thus: melting temperature; melt of duplexes. Particulars: sodium 0.0675 M; strand 1 µM.
With “CGACGTGCACGATGTGCTG+CAGCACATAGGGCACGTCG ((((((((.(.((((((((+)))))))).).))))))))”, the Tm is 54.9 °C.

As to “CGACGTGCTAAATGTGCTG+CAGCACATCCTGCACGTCG ((((((((...((((((((+))))))))...))))))))”, the Tm is 49 °C.

Consider “CGACGTGCGCTATGTGCTG+CAGCACATGAAGCACGTCG ((((((((...((((((((+))))))))...))))))))”, for which the Tm was found to be 53.9 °C.

Turning to “CGACGTGCGGGATGTGCTG+CAGCACATGGCGCACGTCG (((((((((..((((((((+))))))))..)))))))))”, the melting temperature (Tm) worked out at 57.5 °C.

For “CGACGTGCGTCATGTGCTG+CAGCACATAATGCACGTCG ((((((((.(.((((((((+)))))))).).))))))))”, the Tm came to 52.2 °C.

As to “CGACGTGCCCCATGTGCTG+CAGCACATGTGGCACGTCG (((((((((.(((((((((+))))))))).)))))))))”, the Tm amounted to 58.8 °C.

“CGACGTGCTCGATGTGCTG+CAGCACATAGCGCACGTCG ((((((((.(.((((((((+)))))))).).))))))))”: the Tm turned out to be 51.6 °C.

“CGACGTGCTGCATGTGCTG+CAGCACATACAGCACGTCG ((((((((((.((((((((+)))))))).))))))))))”: the Tm worked out at 58.2 °C.

“CGACGTGCACCATGTGCTG+CAGCACATTTTGCACGTCG (((((((((..((((((((+))))))))..)))))))))”: the Tm worked out at 46.7 °C.

“CGACGTGCCTGATGTGCTG+CAGCACATAAGGCACGTCG ((((((((((.((((((((+)))))))).))))))))))”: the Tm was determined as 59 °C.

“CGACGTGCACCATGTGCTG+CAGCACATCGTGCACGTCG ((((((((((.((((((((+)))))))).))))))))))”: the Tm turned out to be 49.6 °C.

On to “CGACGTGCTCGATGTGCTG+CAGCACATCAAGCACGTCG (((((((((.(((((((((+))))))))).)))))))))”, for which the Tm stood at 57.2 °C.

As to “CGACGTGCTTCATGTGCTG+CAGCACATATCGCACGTCG ((((((((...((((((((+))))))))...))))))))”, the Tm is 47.5 °C.

Consider “CGACGTGCTGGATGTGCTG+CAGCACATTTGGCACGTCG ((((((((...((((((((+))))))))...))))))))”, for which the Tm came to 51.8 °C.

Take “CGACGTGCCCTATGTGCTG+CAGCACATATCGCACGTCG ((((((((..(((((((((+)))))))))..))))))))”: the Tm worked out at 48.1 °C.

For “CGACGTGCTCCATGTGCTG+CAGCACATATGGCACGTCG ((((((((...((((((((+))))))))...))))))))”, the Tm was determined as 49 °C.

For “CGACGTGCCAAATGTGCTG+CAGCACATCCTGCACGTCG ((((((((...((((((((+))))))))...))))))))”, the Tm was 48.5 °C.

In the case of “CGACGTGCGGTATGTGCTG+CAGCACATCTGGCACGTCG ((((((((...((((((((+))))))))...))))))))”, the melting temperature (Tm) worked out at 51.6 °C.

Take “CGACGTGCTCAATGTGCTG+CAGCACATACTGCACGTCG ((((((((...((((((((+))))))))...))))))))”: the midpoint of thermal melting (Tm) was 48.7 °C.

Regarding “CGACGTGCTATATGTGCTG+CAGCACATCACGCACGTCG ((((((((...((((((((+))))))))...))))))))”, the Tm amounted to 47.9 °C.

In the case of “CGACGTGCAATATGTGCTG+CAGCACATCCTGCACGTCG (((((((((..((((((((+))))))))..)))))))))”, the Tm is 49.6 °C.

With “CGACGTGCTTGATGTGCTG+CAGCACATAACGCACGTCG ((((((((.(.((((((((+)))))))).).))))))))”, the Tm is 50.8 °C.

In the case of “CGACGTGCGCGATGTGCTG+CAGCACATTATGCACGTCG ((((((((...((((((((+))))))))...))))))))”, the Tm came to 50 °C.

As for “CGACGTGCAGAATGTGCTG+CAGCACATCCTGCACGTCG ((((((((((.((((((((+)))))))).))))))))))”, the Tm was determined as 57.4 °C.

Turning to “CGACGTGCCCTATGTGCTG+CAGCACATCCGGCACGTCG (((((((((..((((((((+))))))))..)))))))))”, the Tm amounted to 52.2 °C.

Consider “CGACGTGCCAAATGTGCTG+CAGCACATTTCGCACGTCG ((((((((.((((((((((+)))))))))).))))))))”, for which the Tm came to 54.1 °C.

Turning to “CGACGTGCGCTATGTGCTG+CAGCACATCGCGCACGTCG ((((((((((.((((((((+)))))))).))))))))))”, the Tm was determined as 60.1 °C.

“CGACGTGCCACATGTGCTG+CAGCACATCTTGCACGTCG ((((((((.(.((((((((+)))))))).).))))))))”: the Tm was found to be 47.5 °C.

Consider “CGACGTGCGTAATGTGCTG+CAGCACATGACGCACGTCG ((((((((((.((((((((+)))))))).))))))))))”, for which the Tm is 58 °C.

“CGACGTGCAGGATGTGCTG+CAGCACATCTAGCACGTCG ((((((((..(((((((((+)))))))))..))))))))”: the Tm was 56 °C.

In the case of “CGACGTGCAAAATGTGCTG+CAGCACATTTCGCACGTCG ((((((((.((((((((((+)))))))))).))))))))”, the midpoint of thermal melting (Tm) is 55.4 °C.

For “CGACGTGCAGTATGTGCTG+CAGCACATACTGCACGTCG (((((((((((((((((((+)))))))))))))))))))”, the Tm worked out at 62.7 °C.

For “CGACGTGCGGGATGTGCTG+CAGCACATATGGCACGTCG ((((((((...((((((((+))))))))...))))))))”, the Tm came to 50.8 °C.

Turning to “CGACGTGCATTATGTGCTG+CAGCACATGTGGCACGTCG ((((((((...((((((((+))))))))...))))))))”, the Tm amounted to 49.2 °C.

As to “CGACGTGCAACATGTGCTG+CAGCACATAGGGCACGTCG ((((((((...((((((((+))))))))...))))))))”, the Tm was determined as 49.1 °C.

As for “CGACGTGCGATATGTGCTG+CAGCACATCGAGCACGTCG ((((((((...((((((((+))))))))...))))))))”, the midpoint of thermal melting (Tm) was 53.6 °C.

As to “CGACGTGCCACATGTGCTG+CAGCACATAACGCACGTCG ((((((((...((((((((+))))))))...))))))))”, the Tm turned out to be 47.1 °C.

Turning to “CGACGTGCTGGATGTGCTG+CAGCACATAGCGCACGTCG ((((((((...((((((((+))))))))...))))))))”, the Tm is 49.3 °C.

With “CGACGTGCACGATGTGCTG+CAGCACATCACGCACGTCG ((((((((..(((((((((+)))))))))..))))))))”, the Tm came to 51.9 °C.

Take “CGACGTGCCAGATGTGCTG+CAGCACATAACGCACGTCG ((((((((...((((((((+))))))))...))))))))”: the Tm amounted to 48.6 °C.

Regarding “CGACGTGCAGCATGTGCTG+CAGCACATATCGCACGTCG ((((((((...((((((((+))))))))...))))))))”, the Tm came to 46.6 °C.

As to “CGACGTGCATCATGTGCTG+CAGCACATGCTGCACGTCG (((((((((.(((((((((+))))))))).)))))))))”, the midpoint of thermal melting (Tm) is 55.8 °C.

Regarding “CGACGTGCGCTATGTGCTG+CAGCACATGGGGCACGTCG ((((((((.(.((((((((+)))))))).).))))))))”, the Tm was found to be 56.7 °C.

As to “CGACGTGCTAGATGTGCTG+CAGCACATACAGCACGTCG (((((((((..((((((((+))))))))..)))))))))”, the Tm is 53.2 °C.

Consider “CGACGTGCCGTATGTGCTG+CAGCACATACGGCACGTCG (((((((((((((((((((+)))))))))))))))))))”, for which the Tm was 66.2 °C.

Turning to “CGACGTGCAAGATGTGCTG+CAGCACATGCTGCACGTCG (((((((((..((((((((+))))))))..)))))))))”, the melting temperature (Tm) was 51.1 °C.

With “CGACGTGCTTCATGTGCTG+CAGCACATCAGGCACGTCG ((((((((.(.((((((((+)))))))).).))))))))”, the Tm is 49.1 °C.

Regarding “CGACGTGCTTGATGTGCTG+CAGCACATTAAGCACGTCG ((((((((((.((((((((+)))))))).))))))))))”, the Tm is 57.2 °C.

As for “CGACGTGCCTCATGTGCTG+CAGCACATATGGCACGTCG (((((((((..((((((((+))))))))..)))))))))”, the midpoint of thermal melting (Tm) amounted to 54 °C.

For “CGACGTGCGTCATGTGCTG+CAGCACATCCGGCACGTCG ((((((((...((((((((+))))))))...))))))))”, the Tm worked out at 48.7 °C.

Consider “CGACGTGCAAGATGTGCTG+CAGCACATGCAGCACGTCG ((((((((...((((((((+))))))))...))))))))”, for which the Tm stood at 52.3 °C.

As to “CGACGTGCCGGATGTGCTG+CAGCACATGATGCACGTCG ((((((((...((((((((+))))))))...))))))))”, the Tm was found to be 49 °C.

In the case of “CGACGTGCGTCATGTGCTG+CAGCACATCCTGCACGTCG ((((((((...((((((((+))))))))...))))))))”, the Tm stood at 48.9 °C.

On to “CGACGTGCTATATGTGCTG+CAGCACATACCGCACGTCG ((((((((..(((((((((+)))))))))..))))))))”, for which the Tm was 49.3 °C.

As to “CGACGTGCCCCATGTGCTG+CAGCACATTCGGCACGTCG (((((((((..((((((((+))))))))..)))))))))”, the Tm was found to be 51.5 °C.

In the case of “CGACGTGCTCGATGTGCTG+CAGCACATCCTGCACGTCG ((((((((..(((((((((+)))))))))..))))))))”, the Tm amounted to 53 °C.

For “CGACGTGCCTGATGTGCTG+CAGCACATGGGGCACGTCG (((((((((..((((((((+))))))))..)))))))))”, the Tm stood at 56.4 °C.

Consider “CGACGTGCGATATGTGCTG+CAGCACATAAGGCACGTCG ((((((((..(((((((((+)))))))))..))))))))”, for which the melting temperature (Tm) is 52 °C.

Consider “CGACGTGCGCAATGTGCTG+CAGCACATAAGGCACGTCG ((((((((...((((((((+))))))))...))))))))”, for which the midpoint of thermal melting (Tm) is 50.9 °C.

For the substance “CGACGTGCACAATGTGCTG+CAGCACATCACGCACGTCG ((((((((...((((((((+))))))))...))))))))”, the midpoint of thermal melting (Tm) worked out at 45.3 °C.

With “CGACGTGCTAAATGTGCTG+CAGCACATTGCGCACGTCG ((((((((..(((((((((+)))))))))..))))))))”, the Tm was 51.2 °C.

With “CGACGTGCATAATGTGCTG+CAGCACATGATGCACGTCG ((((((((((.((((((((+)))))))).))))))))))”, the Tm came out at 56.8 °C.

Take “CGACGTGCGTTATGTGCTG+CAGCACATATGGCACGTCG ((((((((..(((((((((+)))))))))..))))))))”: the Tm was found to be 51.1 °C.

Turning to “CGACGTGCGTCATGTGCTG+CAGCACATATGGCACGTCG ((((((((...((((((((+))))))))...))))))))”, the midpoint of thermal melting (Tm) was determined as 49.8 °C.

Consider “CGACGTGCAGCATGTGCTG+CAGCACATGATGCACGTCG (((((((((.(((((((((+))))))))).)))))))))”, for which the Tm worked out at 61.3 °C.

For the substance “CGACGTGCCGCATGTGCTG+CAGCACATTTGGCACGTCG (((((((((..((((((((+))))))))..)))))))))”, the Tm was 53.9 °C.
